Experimental data as given in PMC3509150 (2012).

Molecular target: HIV-1 capsid protein (CA), full-length (HIV-1, UniProt P12493 133-363)

B1: CANTDcb1 nanobody with C-terminal 6xHis-tag, purified (VHH)
VHH: QVQLVESGGGLVQAGGSLRLSCAASGYFSSYAMGWFRQAPGKEREFVAAISWIESTTDYADSVKGRFTISRDNAKKTLHLQMNSLKPEDTAVYYCAACDIPFGQAFCALYDYWGQGTQVTVSS
koff: 0.00012 s⁻¹
